This test concerns the target T1, VipB protein (Vibrio cholerae, VCA0108) (Vibrio cholerae).
T1 construct: GenBank NP_232509; The experiments used strain 2740-80; also called 55 kDa band; Band A
T1 chain: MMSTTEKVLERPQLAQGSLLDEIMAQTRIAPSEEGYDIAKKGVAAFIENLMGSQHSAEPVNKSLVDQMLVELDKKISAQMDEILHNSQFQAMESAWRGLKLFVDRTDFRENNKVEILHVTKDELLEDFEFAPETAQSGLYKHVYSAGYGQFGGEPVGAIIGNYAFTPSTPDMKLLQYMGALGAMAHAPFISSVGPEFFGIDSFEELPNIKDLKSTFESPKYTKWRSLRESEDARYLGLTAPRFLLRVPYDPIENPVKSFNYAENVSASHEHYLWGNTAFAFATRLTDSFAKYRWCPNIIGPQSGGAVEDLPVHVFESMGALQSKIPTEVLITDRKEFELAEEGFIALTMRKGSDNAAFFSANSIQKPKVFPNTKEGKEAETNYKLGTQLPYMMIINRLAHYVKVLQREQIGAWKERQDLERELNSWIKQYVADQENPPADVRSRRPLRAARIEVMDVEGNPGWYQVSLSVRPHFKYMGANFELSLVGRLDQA
As to the kind of experiment: purified sheath separated by SDS-PAGE; bands identified by MS.

B1: VipA protein (Vibrio cholerae, VCA0107) (other)
chain: MSKEGSVAPKERINIKYIPATGDAQAEVELPLKTLVVGDFKGHAEQTPLEERATVTVDKNNFEAVMRESELKITATVKNKLTDDENAELPVELNFKSLADFAPDAVASQVPELKKLIELREALVALKGPLGNIPAFRERLQSLLNSEESREKLLAELNLLSGQEEPQA
notes: GenBank NP_232508; The experiments used strain 2740-80; also called WT VipA; 20 kDa band
B1: the binding result was “binds”.

These data come from US20180147273A1 (Harvard, published 2018).
